From publication PMC4873337

Molecular target: WT p45 Tcf1 (UniProt Q00417 1-419)
Test: EMSA

Chain of WT p45 Tcf1 (Q00417 whole entry): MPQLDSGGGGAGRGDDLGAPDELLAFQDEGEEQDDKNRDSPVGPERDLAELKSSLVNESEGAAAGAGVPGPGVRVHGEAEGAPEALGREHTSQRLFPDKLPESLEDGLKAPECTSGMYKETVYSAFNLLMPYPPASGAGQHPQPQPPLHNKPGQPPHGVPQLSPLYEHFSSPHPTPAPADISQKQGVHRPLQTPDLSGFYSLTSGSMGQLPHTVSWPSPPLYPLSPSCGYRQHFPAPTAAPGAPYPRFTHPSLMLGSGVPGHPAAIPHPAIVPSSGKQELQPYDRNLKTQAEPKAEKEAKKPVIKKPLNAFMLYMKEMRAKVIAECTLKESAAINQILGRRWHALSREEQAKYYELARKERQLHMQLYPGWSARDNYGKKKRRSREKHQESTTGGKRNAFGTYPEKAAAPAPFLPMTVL

B1: TOP probe (dsDNA)
DNA 1: GATCTAGGGCACCCTTTGAAGCTCT
DNA 2: AGAGCTTCAAAGGGTGCCCTAGATC
B1: binds.
